“Also recorded” adds a separate entry of the source.
Key:
MDA-MB-231 cancer cells = test: IVIS in vivo imaging and tumor size in mice with MDA-MB-231 tumors; set-up: species or system mouse; details: NOD-SCID mice, MDA-MB-231 tumor, protein injected into tumor (50 μM), Co-h 5 μg/50 μL subcutaneously
Method: MDA-MB-231 cancer cells (ATCC) were cultured in RPMI (Corning Inc.) containing 5% FBS (Corning Inc.) and 1% penicillin and streptomycin. Mice used in this experiment were 7-week-old NOD-SCID species, and purchased from Central Lab Animal Inc., and then the mice were raised without diet restriction for 2 weeks for acclimation at this research institute. The weight of a female mouse ranged from 17 to 23 g.
This animal experiment was conducted after approval by the Institute of Animal Care and Use Committee (IACUC) of the Asan Medical Center in compliance with the guidelines. 1×10^6 cells/50 μL of MDA-MB-231 cells diluted in RPMI and 50 μL of Matrigel (Corning Inc.) were subcutaneously injected into the adipose body of a NOD-SCID mouse. On day 9 after cell injection, a protein containing 20 μL of Matrigel (RLuc8.6-KR-LP, final concentration: 50 μM) was injected into a tumor when the tumor size of the mouse was approximately 40 mm^2. After respiratory anesthesia of the mouse, fluorescence emitted from the protein was imaged using an IVIS spectrum (Xenogen Inc.). For BL-PDT, Co-h (5 μg/50 μL, Nanolight Technology.) was diluted in 1×PBS (Corning) and then subcutaneously injected. The light emission from Co-h was imaged after the IVIS spectrum was set to 5 seconds.

MCF-7 = test: Cell death after light irradiation by cell type (SYTOX Green/DAPI); format: cell-based, human; details: MCF-7, protein 10 μM, light 10 mW/cm^2 for 10 minutes
Method: Data on each breast cancer cell line is as follows (Table 4): MCF-7: (Origin: breast, mammary gland, Species: human—person, Growth pattern: monolayer, Media: RPMI1640 with L-glutamine (300 mg/L), 25 mM HEPES and 25 mM NaHCO3, 90%; heat inactivated fetal bovine serum (FBS), 10%), purchased from Korean Cell Line Bank (KCLB).
(§1) The cells were seeded at 5×10^5 cells/mL in 96-well plates (SPL Cell Culture Plate, 96 well (SPL, Cat #30096)), and cultured at 37° C. for 24 hours (overnight). After the culture for 24 hours, the cells were washed with FBS & phenol red-free media, and 100 μL of FBS & phenol red-free media containing a purified protein (final concentration: 10 μM) was added, followed by reaction at 37° C. for 24 hours. After the reaction for 24 hours, the cells were washed with FBS & phenol red-free media, and 100 μL of FBS & phenol red-free media was added.
After irradiation with light at 10 mW/cm^2 for 10 minutes, 50 μL (final concentration: 261 nM) of SYTOX Green staining DNA of dead cells was added, followed by reaction at 37° C. for 30 minutes. 10 μL of DAPI staining DNA of live cells was added, followed by reaction for 5 minutes. Cell death was confirmed by observing KillerRed, SYTOX Green and DAPI fluorescence using a confocal microscope.

[1] = Fluorescence assay of purified proteins (excitation/emission); format: physicochemical; details: protein 10 μM in 1×PBS
Method: 100 μL of buffer (1×PBS) containing the protein purified in Example 1 (final concentration: 10 μM) was dispensed into a 96-well plate (SPL Cell Culture Plate, 96 well (SPL, Cat #32096)). Afterward, a fluorescence signal level was detected by fluorescence assay using a Thermo Scientific™ Varioskan™ Flash Multimode Reader.

MCF-10A = test: Cell death with Co-h substrate by cell type (SYTOX Green or EthD-1/DAPI); format: cell-based, human; details: protein 10 μM, Co-h 150 μM for 5 minutes
Method: as §1, with “hours.” for “hours. After the reaction for 24 hours, the cells were washed with FBS & phenol red-free media, and 100 μL of FBS & phenol red-free media was added.”
(§2) Subsequently, the cells were washed with FBS & phenol red-free media, and 100 μL of FBS & phenol red-free media was added. 100 μL of FBS & Phenol red-free media (RPMI) containing a Co-h substrate solution (final concentration: 150 μM) was added, followed by reaction at 37° C. for 5 minutes.
(§3) After the reaction, 50 μL of SYTOX Green (final concentration: 261 nM) or 90 μL of ethidium homodimer (EthD-1) (final concentration 1×), which stains DNA of dead cells, was added, followed by reaction at 37° C. for 30 minutes. 10 μL of DAPI staining DNA of live cells was added, followed by reaction for 5 minutes. Cell death was confirmed by observing KillerRed, SYTOX Green, MiniSOG, EthD-1 and DAPI fluorescence using a confocal microscope.

BT-474 = test: as above; format: cell-based, human; details: BT-474, protein 10 μM, Co-h 150 μM for 5 minutes
Method: as §1, with “hours.” for “hours. After the reaction for 24 hours, the cells were washed with FBS & phenol red-free media, and 100 μL of FBS & phenol red-free media was added.”
as §2, §3

B1: RLuc8.6-KR-LP: fusion protein of RLuc8.6, KillerRed and lead peptide WLEAAYQRFL, 71 kDa (protein)
chain: MRGSHHHHHHGMASMTGGQQMGRDLYDDDDKDPMASKVYDPEQRKRMITGPQWWARCKQMNVLDSFINYYDSEKHAENAVIFLHGNATSSYLWRHVVPHIEPVARCIIPDLIGMGKSGKSGNGSYRLLDHYKYLTAWFELLNLPKKIIFVGHDWGSALAFHYAYEHQDRIKAIVHMESVVDVIESWMGWPDIEEELALIKSEEGEKMVLENNFFVETLLPSKIMRKLEPEEFAAYLEPFKEKGEVRRPTLSWPREIPLVKGGKPDVVQIVRNYNAYLRASDDLPKLFIESDPGFFYNAIVEGAKKFPNTEFVKVKGLHFLQEDAPDEMGKYIKSFVERVLKNEQEFGGGMLCCMRRTKQVEKNDEDQKISEGGPALFQSDMTFKIFIDGEVNGQKFTIVADGSSKFPHGDFNVHAVCETGKLPMSWKPICHLIQYGEPFFARYPDGISHFAQECFPEGLSIDRTVRFENDGTMTSHHTYELDDTCVVSRITVNCDGFQPDGPIMRDQLVDILPNETHMFPHGPNAVRQLAFIGFTTADGGLMMGHFDSKMTFNGSRAIEIPGPHFVTIITKQMRDTSDKRDHVCQREVAYAHSVPRITSAIGSDEDGGGWLEAAYQRFL
modifications: pRSET-RLuc8.6-KillerRed-Lead peptide
In the case of B1, the tumor size (MDA-MB-231 cancer cells) is reported as “the smallest; also recorded: tumor growth is inhibited” and the “cell death after light irradiation” value (MCF-7) is reported as “killing the three types of cancer cell lines”.

B2: KR: first protein KillerRed, ROS-generating protein (superoxide), expressed from pRSET-KillerRed, 31 kDa (protein)
chain: MRGSHHHHHHGMASMTGGQQMGRDLYDDDDKDPMLCCMRRTKQVEKNDEDQKISEGGPALFQSDMTFKIFIDGEVNGQKFTIVADGSSKFPHGDFNVHAVCETGKLPMSWKPICHLIQYGEPFFARYPDGISHFAQECFPEGLSIDRTVRFENDGTMTSHHTYELDDTCVVSRITVNCDGFQPDGPIMRDQLVDILPNETHMFPHGPNAVRQLAFIGFTTADGGLMMGHFDSKMTFNGSRAIEIPGPHFVTIITKQMRDTSDKRDHVCQREVAYAHSVPRITSAIGSDED
modifications: pRSET-KillerRed
notes: first protein KillerRed, ROS-generating protein (superoxide), expressed from pRSET-KillerRed, 31 kDa
For B2, the “emission wavelength (fluorescence)” value [1] was 610 nm and the excitation wavelength [1] was 585 nm.

B3: RLuc8.6-KR: fusion protein of RLuc8.6 and KillerRed without lead peptide, 69 kDa (protein)
chain: MRGSHHHHHHGMASMTGGQQMGRDLYDDDDKDPMASKVYDPEQRKRMITGPQWWARCKQMNVLDSFINYYDSEKHAENAVIFLHGNATSSYLWRHVVPHIEPVARCIIPDLIGMGKSGKSGNGSYRLLDHYKYLTAWFELLNLPKKIIFVGHDWGSALAFHYAYEHQDRIKAIVHMESVVDVIESWMGWPDIEEELALIKSEEGEKMVLENNFFVETLLPSKIMRKLEPEEFAAYLEPFKEKGEVRRPTLSWPREIPLVKGGKPDVVQIVRNYNAYLRASDDLPKLFIESDPGFFYNAIVEGAKKFPNTEFVKVKGLHFLQEDAPDEMGKYIKSFVERVLKNEQEFGGGMLCCMRRTKQVEKNDEDQKISEGGPALFQSDMTFKIFIDGEVNGQKFTIVADGSSKFPHGDFNVHAVCETGKLPMSWKPICHLIQYGEPFFARYPDGISHFAQECFPEGLSIDRTVRFENDGTMTSHHTYELDDTCVVSRITVNCDGFQPDGPIMRDQLVDILPNETHMFPHGPNAVRQLAFIGFTTADGGLMMGHFDSKMTFNGSRAIEIPGPHFVTIITKQMRDTSDKRDHVCQREVAYAHSVPRITSAIGSDED
modifications: pRSET-RLuc8.6-KillerRed
For B3, the “cell death with Co-h substrate” value (MCF-10A) was “none of the six breast cancer cell lines were killed” and the “cell death with Co-h substrate” value (BT-474) was “none of the six breast cancer cell lines were killed”.
